Experimental data published in patent US11773160 (ANAVEON, dated 2023).
Blank lines part the entries; values can stand above or below the binder they belong to.

Assays:
Recombinant human IL-2 [1] = molecular target: T1, Recombinant human IL-2 (human, UniProt P60568 21-153); assay: Octet BLI, antibody immobilised on amine reactive sensors, IL-2 in solution; Octet, free antibody B against recombinant hIL-2: weak binding, KD 269.8 nM
T1 construct: also called hIL-2; recombinant IL-2 (Acro Biosystems, IL2-H4113)
Description: (§1) Antibody A, B or C were immobilized on amine reactive (2nd Generation) sensors (ForteBio, 18-5092). Association (600s) and dissociation (900s) of a dilution series of recombinant IL-2 (Acro Biosystems, IL2-H4113) were measured on the antibody-coated biosensors on an Octet-System (Octet RED, ForteBio). K_D values were obtained by fitting the kinetics data with the ForteBio Data Analysis Software (8.2).

Recombinant human IL-2 [2] = molecular target: T1, Recombinant human IL-2; assay: Octet BLI, antibody immobilised on amine reactive sensors, IL-2 in solution
Description: as §1

Recombinant human IL-2 [3] = molecular target: T1, Recombinant human IL-2; assay: ELISA, recombinant human IL-2 coated, antibody titrated, anti-human IgG-Peroxidase
Description: Recombinant human IL-2 was coated on Maxisorp ELISA plates (Invitrogen, 44-2404-21) at 5 µg/ml, 4° C. over night. After 2 hours blocking, antibodies A, B and C were incubated in a serial dilution starting from 10 µg/ml in assay buffer. The antibodies were detected with anti-human IgG-Peroxidase (Sigma, A0170). After addition and blockade of the […] substrate, absorption was read ($A450$-$A570$ at plate reader, Spectramax iD3). $EC50$ values were obtained by plotting Absorbance vs. log(Concentration).

T1 sequence (P60568 21-153 limits assumed): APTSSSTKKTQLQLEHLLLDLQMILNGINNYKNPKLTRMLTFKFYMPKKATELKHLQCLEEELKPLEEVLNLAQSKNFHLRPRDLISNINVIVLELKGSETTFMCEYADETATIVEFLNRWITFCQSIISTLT

- Kd (Recombinant human IL-2 [1]): 270 nM
B1: Antibody B (antibody, human IgG1, kappa, V domains shown)
VH: QVQLVESGGGVVQPGRSLRLSCAASGYTFSSYLIEWVRQAPGKGLEWVAVINPGSGGTNYADSVKGRFTISADKSKNTAYLQMNSLRAEDTAVYYCARWRGDGYYAYFDVWGQGTTVTVSS
VL: EIVLTQSPATLSVSPGERATLSCRASQSVSYDGDSYMNWYQQKPGQAPRLLIYAASNLASGIPARFSGSGSGTEFTLTISSLQSEDAAVYYCQQSNEDPYTFGGGTKVEIKR
notes: Full-length human IgG1 kappa

- Kd (Recombinant human IL-2 [2]): 2.1 nM
- EC50 (Recombinant human IL-2 [3]): 0.37 nM
B2: Antibody A (antibody, human IgG1, kappa, N297A, V domains shown)
VH: EVQLVQSGAEVKKPGESLKISCKGSGYAFTNYLIEWVRQMPGKGLEWMGVINPGSGGTNYNEKFKGQVTISADKSISTAYLQWSSLKASDTAMYYCARWRGEGYYAYFDVWGQGTTVTVSS
VL: AIRLTQSPSSFSASTGDRVTITCKASQSVDYQGDSYMNWYQQKPGKAPKLLIYAASNLESGVPSRFSGSGSGTDFTLTISSLQSEDFATYYCQQSNEDPYTFGGGTKVEIKR
notes: Humanized full-length human IgG1 kappa; The printed heavy chain carries the N297A Fc

- Kd (Recombinant human IL-2 [2]): > 1000 nM
B3: Antibody C (antibody, human IgG1, kappa, V domains shown)
VH: EVQLVQSGAEVKKPGESLKISCKGSGYSFTNFYIHWVRQAPGQRLEWMGSIYPNYGDTAYNQKFKDRFVFSLDTSVSTAYLQISSLKAEDTAVYYCARGYSYAMDYWGQGTTVTVSS
VL: DIQMTQSPSSVSASVGDRVTITCSASQGISGDLNWYQQKPGKAPKLLIYHTSSLHSGVPSRFSGSGSGTDFTLTISSLQPEDFATYYCQYYSKDLLTFGGGTKLEIKR
notes: Control antibody, full-length human IgG1 kappa
